Assay results taken from patent publication US20240270826A1 (NATIONAL RESEARCH COUNCIL OF CANADA, published 2024).
Changes are numbered by the printed parent chain. Where two headings read alike, the source gives them in different places.

B1: NRCoV2-SR02 VHH (VHH)
VHH: EVQLVDSGGGLVQAGGSLRLSCTASEFTLNYYSIGWFRQSPGKEREGVSCIRYSGGGIDYADSVKGRFTISRDNAKNTVYLTMNSLKPEDTAVYYCAADRLYSRACPTAGGRNYWGQGTQVTVSS
B2: NRCoV2-S2H4 VHH-Fc (Fc fusion)
chain: QVQLVQSGGGLVQAGGSLRLSCAASGFTFNLYSIAWFRQAPGKEREGVSCINSGDRDSTTYYADSVKGRFTISRDNAKHTAYLQMDSLKPEDTAVYYCALVFGYTSRDYCLTPKRGNYWGQGTQVTVSS
notes: bivalent VHH-Fc
B3: NRCoV2-18 VHH (VHH)
VHH: EVQLVESGGGLVQAGGSLRLSCVASGITISGYNMAWWRQTRGKQTERVAFINSGGSTTYSDSVKGRFTISRDNGKNTAYLQMNSLNAEDTADYFCSLHTSHDYWGQGTQVTVSS
B4: NRCoV2-14 VHH (VHH)
VHH: EVQLVSSGGGLVQAGGSLRLSCEASGTTFSHYAVGWYRQAPGKQREWVASISVFGSTTYGGSVAGRFTISRDNDKNTVDLQMNSLKPEDTAVYYCHAVNADIGGDYWGQGTQVTVSS
B5: NRCoV2-11a VHH-Fc (Fc fusion)
chain: EVQLQQSGGGLVQPGGSLRLSCAASGFTLDSYNIAWFRQAPGKEREWISYISRYYESTYYSDSVKGRFTTSRDGDKKTVSLQMNSLKSEDTAVYYCAARSRDFSSPISATDKYGSWGQGTQVTVSS
notes: bivalent VHH-Fc
B6: NRCoV2-11a VHH-Fc (Fc fusion)
chain: B5 chain
notes: bivalent VHH-Fc
B7: NRCoV2-02 VHH (VHH)
VHH: EVQLVESGGGLVQAGGSLRLSCAASGFTFSNYAMNWVRQAPGKGLEWVSGISGRGDDTRYADSVKGRFTISRDNAKNTLFLQMRSLRPEDTGVYRCTKGPDLYYFGSGYSDRGQGTQVTVSS
B8: NRCoV2-05 VHH (VHH)
VHH: EVKLVQSGGGLVQPGGSLRLSCAASGFIFSNYAMNWVRQAPGKGLEWVSGINSGGGDTRYADSVKGRFTVSRDNAKNTLYLQMNSLKPEDTGVYYCSKGPVSSYYGSGYDYRGQGTQVTVSS
B9: NRCoV2-15 VHH (VHH)
VHH: EVQLVSSGGGLVEAGGSLRLSCIASGSTSGRNTMGWFRQAPGKQREWVAIVSTSGATNYAGSVKGRFTLSRDNAKNAVYLQMNNLKPEDTAVYYCYAAYGGGGDYWGQGTQVTVSS
B10: NRCoV2-SR13 VHH (VHH)
VHH: EVQLVESGGGLVTTGGSLRLSCATSGSRFGSKHMAWYRQAPGKQRDLVAAISSGGSTHYGSSVKGRFTISRDNAKSTVYLQMNSLNPEDTAVFYCNMGGWDYRSNTYIPGSRSDYWGQGTQVTVSS
B11: NRCoV2-03 VHH (VHH)
VHH: EVQLVSSGGGLVQAGGSLRLSCTASGITFSYYAMGWYRQAPGQPRELVASMSNMDSTIYADSVKGRFTISRDNAKTTIYLQMNNLKPEDTAVYFCNIYGPTYSTRRNEYWGQGTQVTVSS
B12: NRCoV2-MRed04 VHH (VHH)
VHH: EVQLVESGGGLVQPGRSLRLSCAASGNSFSISTMGWFRQAPGKERELVASIWSDTTTSYADSVKGRFTISTDNTRTKVYLQMSSLNPEDTAVYYCAADRGFVVRGQYDYWGQGTQVTVSS
B13: NRCoV2-06 VHH (VHH)
VHH: EVQLVQSGGGLVQAGESLRLSCAASVSTFSSYAMGWYRQAPGKQRELVASIGFVGATYYIDSVKGRFTISRDNAKKTAYLQMNDLKPDDTAVYYCNARHYGGSEYWGQGTQVTVSS
B14: NRCoV2-17 VHH (VHH)
VHH: EVQLQQSGGGLVQTGGSLRLSCAAAGSPFSQLAMSWYRQISGKERAWVASISPTGNRSYSKIAKGRFTISRDNAKNTVTLQMTSLKPEDTAAYICQAANVNGGDYWGQGTQVTVSS
B15: NRCoV2-04 VHH (VHH)
VHH: AVQLVDSGGGLVQPGGSLRLSCAASGSPFSNVVMAWYRQAPGKQRERVAFISGGGIADYIMSVKGRFTISRDNAKNTVYLQMNSLKPEDTAVYYCWSSYESTWGQGTQVTVSS
B16: NRCoV2-1a VHH-Fc (Fc fusion)
chain: EVKLVQSGGGSVQPGGSLRLSCAASGSTLDYYAIGWFRQAPGKEREWVSCVSSSDGSTLYADSVKGRFTISRDNAKNTVYLQMNSLKPEDTAVYVCAADYSMRPLWVSRWHRDYEYWGQGTQVTVSS
notes: bivalent VHH-Fc
B17: NRCoV2-1d VHH (VHH)
VHH: B16 chain with K3Q, Q6E, C50S, S57N, P88A, L105F, W106A, S108G
B18: NRCoV2-1a VHH-Fc (Fc fusion)
chain: B16 chain
notes: bivalent VHH-Fc
B19: NRCoV2-10 VHH (VHH)
VHH: QLQLQESGGGLVQPGGSLTLSCAASGNTFSRSNMHWYRQAPGAQREWVAAISSRGISTYAYSAKGRFTISRDNAKNTVSLQMNSLKPEDTAVYYCYAADDLGDYWGQGTQVTVSS
B20: NRCoV2-MRed25 VHH-Fc (Fc fusion)
chain: EVQLVESGGGLVQAGGSLRLSCAASGHTFSRYGMGWFRQAPGKEREFVAAISWRGDSTYYRDSVNGRFTISRDNAKNTVYLGMNSLKPEDTAVYYCAAEMWGTATIVASRYTYWGQGTQVTVSS
notes: bivalent VHH-Fc
B21: NRCoV2-SR01 VHH (VHH)
VHH: EVQLVQSGGGSVQAGGSLRLSCVASGFTFDNYAIGWFRQAPGKEREGVSCISGNGGVTIYADSVKGRFTISRDNAKNLVYLQMNSLKPEDTAVYYCAATGIRSTWSVYGCSRLAGPYDYWGQGTQVTVSS
B22: NRCoV2-11 VHH (VHH)
VHH: EVQLVSSGGGLVQPGGSLRLSCAASGSSLDSYSVSWFRQAPGKEREWISFISRYYSSTYYTDSVKGRFTTSRDGDQKTVHLQMNSLKPEDTAVYYCAARSRDFSSPFSATDTYTSWGQGTQVTVSS
B23: NRCoV2-20 VHH (VHH)
VHH: EVQLQQSGGGLVQPGGSLRLSCAASGRTFSNYVVGWFRQAPQAPGKDHEFVAVISGSDTETYYADSVKGRFTISRDNAKNTVYLQMNSLKPEDTAVYYCAADRGMSYYYTRATEYYYWGQGTQVTVSS
B24: NRCoV2-07 VHH (VHH)
VHH: QVQLVQSGGGLVQPGGSLRLSCAASGVTLDYYAIGWFRQAPGKEREAVSCISSNGRRNHYVASVRGRFTISRDNAKSTVYLQMNSLKPEDTAVYYCAAVQDVHGDNYYCTSPNEYNVWGQGTQVTVSS

How the values were obtained:
[1] = target: T1, Human SARS-CoV-2_Wuhan S (SmT1) (SARS-CoV-2 (Wuhan), UniProt P0DTC2 14-1208); experiment: SPR, VHH over immobilised S
[2] = target: T1, Human SARS-CoV-2_Wuhan S (SmT1); experiment: SPR, VHH over immobilised S; remark: listed apart in the source
[3] = target: T2, SARS-CoV-2 S on CHO-S cells (SARS-CoV-2, UniProt P0DTC2 14-1273); experiment: flow cytometry, CHO-S cells
T2 construct: whole, on cells

SARS-CoV spike (S) = SARS-CoV spike (S) (SARS-CoV, UniProt P59594 14-1195); experiment: SPR, VHH over immobilised S
[4] = target: Human SARS-CoV-2_Wuhan S (SmT1) (SARS-CoV-2 (Wuhan), UniProt P0DTC2 14-1208); experiment: flow cytometry SVNA, VHH-Fc vs biotin-S binding to Vero E6 ACE2

Binder | Kd [1] | koff [1] | kon [1] | Kd [2] | binding result (SARS-CoV spike (S)) | also measured
B1 | 0.135 nM | 0.000669 s⁻¹ | 4.98e+06 M⁻¹ s⁻¹ | 0.47 nM |  | 
B2 |  |  |  |  |  | Bmax [3]: 7910; EC50 [3]: 1 nM
B3 | 0.318 nM | 9.39e-05 s⁻¹ | 295000 M⁻¹ s⁻¹ | 0.32 nM |  | 
B4 | 2.6 nM | 0.00101 s⁻¹ | 389000 M⁻¹ s⁻¹ | 2.6 nM | no binding | 
B5 |  |  |  |  |  | Bmax [3]: 12000; EC50 [3]: 2 nM
B6 |  |  |  |  |  | IC50 [4]: 9.7 nM; IC99 [4]: 67.6 nM; Imax % [4]: 46%
B7 | 0.624 nM | 0.00127 s⁻¹ | 2.04e+06 M⁻¹ s⁻¹ | 0.62 nM | no binding | 
B8 | 2.57 nM | 0.00709 s⁻¹ | 2.76e+06 M⁻¹ s⁻¹ | 2.6 nM | no binding | 
B9 | 0.321 nM | 0.000222 s⁻¹ | 691000 M⁻¹ s⁻¹ | 0.32 nM | no binding | 
B10 | 3.56 nM | 0.00376 s⁻¹ | 1.06e+06 M⁻¹ s⁻¹ | 3.6 nM |  | 
B11 | 1.56 nM | 0.000181 s⁻¹ | 116000 M⁻¹ s⁻¹ | 1.56 nM | no binding | 
B12 | 0.863 nM | 0.00131 s⁻¹ | 1.51e+06 M⁻¹ s⁻¹ | 0.86 nM |  | Kd (SARS-CoV spike (S)): 300 nM; koff (SARS-CoV spike (S)): 0.097 s⁻¹; kon (SARS-CoV spike (S)): 323000 M⁻¹ s⁻¹
B13 | 223 nM | 0.00456 s⁻¹ | 20500 M⁻¹ s⁻¹ | 223 nM | no binding | 
B14 | 0.154 nM | 9.45e-05 s⁻¹ | 614000 M⁻¹ s⁻¹ | 0.15 nM | no binding | 
B15 | 10.2 nM | 0.0188 s⁻¹ | 1.84e+06 M⁻¹ s⁻¹ | 10.2 nM | no binding | 
B16 |  |  |  |  |  | Bmax [3]: 17200; EC50 [3]: 1.1 nM
B17 | 0.75 nM | 0.00105 s⁻¹ | 1.39e+06 M⁻¹ s⁻¹ | 0.75 nM |  | 
B18 |  |  |  |  |  | IC50 [4]: 9.2 nM; IC99 [4]: 89.4 nM; Imax % [4]: 94%
B19 | 0.199 nM | 0.000116 s⁻¹ | 581000 M⁻¹ s⁻¹ | 0.2 nM | no binding | 
B20 |  |  |  |  |  | Bmax [3]: 4420; EC50 [3]: 0.8 nM
B21 | 0.564 nM | 0.000805 s⁻¹ | 1.43e+06 M⁻¹ s⁻¹ | 0.56 nM |  | Kd (SARS-CoV spike (S)): 0.154 nM; koff (SARS-CoV spike (S)): 0.000105 s⁻¹; kon (SARS-CoV spike (S)): 681000 M⁻¹ s⁻¹
B22 | 0.0177 nM | 1.71e-05 s⁻¹ | 964000 M⁻¹ s⁻¹ | 0.018 nM |  | Kd (SARS-CoV spike (S)): 0.014 nM; koff (SARS-CoV spike (S)): 2.7e-05 s⁻¹; kon (SARS-CoV spike (S)): 1.93e+06 M⁻¹ s⁻¹
B23 | 4.39 nM | 0.0116 s⁻¹ | 2.64e+06 M⁻¹ s⁻¹ | 4.39 nM |  | 
B24 | 0.939 nM | 0.000355 s⁻¹ | 378000 M⁻¹ s⁻¹ | 0.94 nM |  | Kd (SARS-CoV spike (S)): 12.2 nM; koff (SARS-CoV spike (S)): 0.00146 s⁻¹; kon (SARS-CoV spike (S)): 120000 M⁻¹ s⁻¹
